Consider five molecules from patent US20110143993A1 (BRIGHAM AND WOMEN S HOSPITAL, published 2011).

The chains are these.
B1: phage clone C-11 (KLWVLPK displayed on pIII of M13 phage) (peptide)
peptide: KLWVLPK
notes: Whole phage particle displaying the heptamer; tested as phage (ELISA with anti-M13 antibody, titer counts); also called Phage C-11; not shown: minor coat protein pIII of M13 filamentous phage (Ph.D.-7 library, New England Biolabs)
B2: phage clone C-8 (HWGSLRA displayed on pIII of M13 phage) (peptide)
peptide: HWGSLRA
notes: 100% of the round 5 clones; not shown: minor coat protein pIII of M13 filamentous phage (Ph.D.-7 library, New England Biolabs)
B3: phage clone A-8 (KVWSLPQ displayed on pIII of M13 phage) (peptide)
peptide: KVWSLPQ
notes: Whole phage particle displaying the heptamer; tested as phage, detected with anti-M13 antibody; not shown: minor coat protein pIII of M13 filamentous phage (Ph.D.-7 library, New England Biolabs)
B4: phage clone C-10 (KIWKLPQ displayed on pIII of M13 phage) (peptide)
peptide: KIWKLPQ
notes: as for B3
B5: phage clone A-9 (KIFVWPY displayed on pIII of M13 phage) (peptide)
peptide: KIFVWPY
modifications: not fully specified
notes: as for B3

No end group written: not given here.

The target of the first assay is T1, Matrigel growth factor reduced LDEV free (basement membrane extract rich in collagen IV and laminin).
T1 construct: A mixture coated on plates, not one protein
Nature of the assay: phage titer count of eluted phage, input 10^12/mL p.f.u., against random library R0, n=3.
Turning to B1, the “fold binding compared to the library (R0), phage titer” value is around 300 fold.

Another assay deals with T2, bovine serum albumin (bovine, UniProt P02769 25-607).
T2 construct: also called BSA
T2 sequence (P02769 25-607 limits assumed): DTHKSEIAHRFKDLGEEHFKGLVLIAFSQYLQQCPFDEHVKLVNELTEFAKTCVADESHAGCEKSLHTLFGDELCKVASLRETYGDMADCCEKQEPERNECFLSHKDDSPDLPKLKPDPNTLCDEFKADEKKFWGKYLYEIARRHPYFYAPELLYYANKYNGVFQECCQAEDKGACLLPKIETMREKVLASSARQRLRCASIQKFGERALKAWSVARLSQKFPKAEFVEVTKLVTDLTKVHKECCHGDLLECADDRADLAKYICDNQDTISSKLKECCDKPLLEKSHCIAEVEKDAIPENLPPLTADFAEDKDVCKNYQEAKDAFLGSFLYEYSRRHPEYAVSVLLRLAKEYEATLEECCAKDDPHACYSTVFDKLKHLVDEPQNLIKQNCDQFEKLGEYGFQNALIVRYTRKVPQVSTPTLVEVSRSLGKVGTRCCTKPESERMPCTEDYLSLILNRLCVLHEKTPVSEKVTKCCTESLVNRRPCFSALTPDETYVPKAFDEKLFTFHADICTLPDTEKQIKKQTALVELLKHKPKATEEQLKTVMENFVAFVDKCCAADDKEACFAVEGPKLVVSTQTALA
Put plainly: phage ELISA on BSA-coated wells, anti-M13 HRP/ABTS. On the procedure:
The clones were tested against the random library (R0) for binding to Matrigel (lighter shaded bars) or BSA (black bars). Bound phages were labeled with peroxidase-conjugated anti-M13 monoclonal antibodies (mAbs), and ABTS absorbance at 405 nm was read against a reference wavelength of 490 nm (mean±s.d., n=3). (**) P<0.01; (***) P<0.001, all compared with R0 (one-way analysis of variance with Tukey post-hoc test).
96-well plates were coated with 100 μL 1/50 dilutions of Matrigel in TBS overnight at 4° C., or TBS buffer only. Plates were blocked with 3% BSA/TBS for 2 h at RT and washed three times. 10¹⁰ p.f.u. of each phage clone was added in 0.5% TBST in triplicate to either Matrigel or BSA-coated wells. Bound phage particles were detected with peroxidase-conjugated mouse anti-M13 monoclonal antibodies at 1/5000 dilution (Amersham Pharmacia Biotech, Piscataway, N.J.). After a 1 h incubation, the reaction was developed with 2,2′-azino-bis(3-ethylbenzthiazoline-6-sulphonic acid) (ABTS) (Amersham) and the absorbance was read at 405 nm against a reference wavelength of 490 nm with a SpectraMax Plus 384 Microplate reader (Molecular Devices, Sunnyvale, Calif.).
(In general: In an ELISA, binding on a coated surface is turned into a signal by an enzyme label.)
B2: the binding result is on record as “no binding (tested: 10^10 p.f.u. of each phage clone)”. For B3, the binding result is “no binding (tested: 10^10 p.f.u. of each phage clone)”. On the same count and under the same terms, next, B1: “no binding (tested: 10^10 p.f.u. of each phage clone)”; B4: “no binding (tested: 10^10 p.f.u. of each phage clone)”; B5: “no binding (tested: 10^10 p.f.u. of each phage clone)”.
